Data on 1 substance can be found in patent publication US20190376046.

Series [1] concerns the target Glyceraldehyde-3-phosphate dehydrogenase (encoded by GAPDH) (UniProt P04406).
The target in series [2] is T1, Phosphoglycerate kinase 1 (encoded by PGK1) (UniProt P00558).
T1 sequence: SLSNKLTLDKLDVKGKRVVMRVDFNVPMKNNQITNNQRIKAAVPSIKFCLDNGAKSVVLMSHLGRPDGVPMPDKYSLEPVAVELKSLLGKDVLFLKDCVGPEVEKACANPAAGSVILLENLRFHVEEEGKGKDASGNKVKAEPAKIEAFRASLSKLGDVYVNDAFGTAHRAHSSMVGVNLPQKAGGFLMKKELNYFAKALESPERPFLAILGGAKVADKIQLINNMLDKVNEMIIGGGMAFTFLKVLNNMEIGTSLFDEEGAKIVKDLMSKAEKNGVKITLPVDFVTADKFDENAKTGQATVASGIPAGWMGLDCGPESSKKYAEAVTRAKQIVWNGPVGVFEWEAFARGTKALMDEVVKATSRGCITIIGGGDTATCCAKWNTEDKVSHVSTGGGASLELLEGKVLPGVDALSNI

For series [3], the target named is T2, Fructose-bisphosphate aldolase A (encoded by ALDOA) (UniProt P04075).
T2 sequence: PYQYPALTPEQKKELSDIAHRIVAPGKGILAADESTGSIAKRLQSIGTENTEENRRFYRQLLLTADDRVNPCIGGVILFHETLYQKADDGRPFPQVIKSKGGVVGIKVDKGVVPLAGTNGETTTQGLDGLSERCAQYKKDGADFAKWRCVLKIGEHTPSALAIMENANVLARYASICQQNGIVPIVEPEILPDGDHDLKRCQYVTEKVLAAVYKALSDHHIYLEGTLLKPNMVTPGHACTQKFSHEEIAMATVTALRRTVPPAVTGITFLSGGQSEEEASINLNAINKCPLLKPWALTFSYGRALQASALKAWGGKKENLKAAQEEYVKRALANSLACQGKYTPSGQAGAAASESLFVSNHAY

The target of series [4] is Alpha-enolase (encoded by ENO1) (UniProt P06733).
Alpha-enolase (encoded by ENO1), sequence (P06733 2-434): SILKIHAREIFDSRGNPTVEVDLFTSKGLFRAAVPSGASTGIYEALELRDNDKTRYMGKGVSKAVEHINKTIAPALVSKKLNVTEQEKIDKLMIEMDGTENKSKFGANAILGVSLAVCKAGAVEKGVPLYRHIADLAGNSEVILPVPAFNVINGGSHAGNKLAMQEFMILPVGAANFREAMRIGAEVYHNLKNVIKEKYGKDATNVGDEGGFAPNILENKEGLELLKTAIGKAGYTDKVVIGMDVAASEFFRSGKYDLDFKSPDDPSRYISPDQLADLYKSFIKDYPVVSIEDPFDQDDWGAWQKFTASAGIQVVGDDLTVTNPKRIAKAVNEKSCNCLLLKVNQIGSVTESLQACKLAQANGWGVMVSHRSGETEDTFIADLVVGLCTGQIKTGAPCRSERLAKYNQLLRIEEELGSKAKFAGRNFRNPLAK

Glyceraldehyde-3-phosphate dehydrogenase (encoded by GAPDH), sequence (P04406 2-335): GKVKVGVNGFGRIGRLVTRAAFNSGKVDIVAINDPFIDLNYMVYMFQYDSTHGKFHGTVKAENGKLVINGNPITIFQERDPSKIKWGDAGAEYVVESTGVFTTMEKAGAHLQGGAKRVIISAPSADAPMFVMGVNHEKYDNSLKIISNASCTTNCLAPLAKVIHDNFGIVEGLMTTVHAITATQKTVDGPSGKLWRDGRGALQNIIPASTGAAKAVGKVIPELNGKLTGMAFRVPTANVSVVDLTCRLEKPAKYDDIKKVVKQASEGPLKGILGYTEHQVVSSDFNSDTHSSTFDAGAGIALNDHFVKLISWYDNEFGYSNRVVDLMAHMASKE

In the case of Sirtuin 2 (SIRT2), human, the “acetylation level (IP with specific antibody, western blot with anti-acetyl-Lys, and the reverse)” value in series [1] was “forced expression of SIRT2 in hESCs prominently deacetylated all four enzymes tested (aldolase, PGK1, enolase, and GAPDH)”; in series [2], “forced expression of SIRT2 in hESCs prominently deacetylated all four enzymes tested (aldolase, PGK1, enolase, and GAPDH)”; in series [3], “forced expression of SIRT2 in hESCs prominently deacetylated all four enzymes tested (aldolase, PGK1, enolase, and GAPDH)”; in series [4], “forced expression of SIRT2 in hESCs prominently deacetylated all four enzymes tested (aldolase, PGK1, enolase, and GAPDH)”. In addition, the “acetylation level after SIRT2 knockdown in hDFs (IP, western blot with anti-acetyl-Lys)” value in series [1] was “Acetylation levels of aldolase, enolase, PGK1 and GAPDH were substantially increased in SIRT2 KD fibroblasts”; in series [2], “Acetylation levels of aldolase, enolase, PGK1 and GAPDH were substantially increased in SIRT2 KD fibroblasts”; in series [3], “Acetylation levels of aldolase, enolase, PGK1 and GAPDH were substantially increased in SIRT2 KD fibroblasts”; in series [4], “Acetylation levels of aldolase, enolase, PGK1 and GAPDH were substantially increased in SIRT2 KD fibroblasts”.
